In patent publication US10344301, “Mutants of the bacteriophage lambda integrase” (AGENCY FOR SCIENCE, TECHNOLOGY AND RESEARCH) one finds binding signal data, which are given here for one molecule.

The data set has as its target T1, C3-HIS integrase (E. coli minicircle) (Bacteriophage lambda, UniProt P03700 SEQ:1-356).
T1 chain: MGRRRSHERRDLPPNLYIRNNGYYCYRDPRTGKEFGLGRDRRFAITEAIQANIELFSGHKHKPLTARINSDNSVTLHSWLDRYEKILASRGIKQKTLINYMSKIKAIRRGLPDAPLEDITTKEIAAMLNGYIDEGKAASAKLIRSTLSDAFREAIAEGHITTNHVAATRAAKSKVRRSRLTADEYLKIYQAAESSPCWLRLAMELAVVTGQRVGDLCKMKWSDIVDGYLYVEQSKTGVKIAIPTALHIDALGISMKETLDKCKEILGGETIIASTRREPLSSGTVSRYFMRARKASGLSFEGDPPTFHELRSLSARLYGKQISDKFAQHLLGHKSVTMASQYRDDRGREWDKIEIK
As to the kind of experiment: cell_activity; E. coli TG1 chromosomal attB integration; 27 colonies, ~90% correct. The note with it: tags: His tag. The source says: The present example follows the methodology depicted in FIG. 2. C3INT-HIS-PET22b(+) was amplified with petF2 (SEQ ID NO: 10) and petR (SEQ ID NO: 11) and the PCR product subsequently intramolecularly ligated to produce a C3INT-HIS minicircle. attP-PET22b(+) was amplified with attP-F (SEQ ID NO: 12) and attPSOE-R (SEQ ID NO: 13) while PET22b(+) was amplified with TEM1prom-F (SEQ ID NO: 14) and TEM1promR (SEQ ID NO: 15) which produced PCR products encoding attP and ampicillin-resistant gene respectively. Splice overlap extension PCR (SOE-PCR) was carried out with these two PCR products using attP-F (SEQ ID NO: 12) and TEM1prom-R (SEQ ID NO: 15). The PCR product was subsequently intramolecularly ligated to produce attP-TEM1 minicircle. 100 ng of C3INT-HIS minicircle and 100 ng attP-TEM1 minicircle were combined and electroporated to 25 μL electrocompetent TG1 cells. The cells were allowed to recover for 1 hr before being plated on varying concentrations of ampicillin-LB agar plates (0.01 mg/mL, 0.02 mg/mL, 0.05 mg/mL, 0.07 mg/mL and 0.1 mg/mL). Incubation was carried out at 37° C. for 12-14 hrs to allow for expression of C3 integrase and chromosomal integration of the ampicillin-resistance cassette by C3 integrase. […]

B1: attB ; attP (dsDNA ; dsDNA)
DNA 1: CTGCTTTTTTATACTAACTTG
DNA 2: CAAGTTAGTATAAAAAAGCAG
DNA 3: CAGCTTTTTTATACTAAGTTG
DNA 4: CAACTTAGTATAAAAAAGCTG
B1 had a binding signal of roughly 12 fold vs Int-h/218.
